Laboratory results published in patent EP4039268A1.

Experiments:
[1] = target: monomeric SARS-CoV-2 receptor binding domain (RBD-H6) (SARS-CoV-2) (UniProt P0DTC2); test: ELISA screen
[2] = target: full-length trimeric SARS-CoV-2 Spike protein (Spike-H6) (SARS-CoV-2); test: ELISA screen
[3] = target: human recombinant soluble ACE2 (human) (UniProt Q9BYF1); test: ELISA screen
[4] = target: full-length trimeric SARS-CoV-2 Spike protein (Spike-H6) (SARS-CoV-2); test: high-speed AFM, from volumes
[5] = target: full-length trimeric SARS-CoV-2 Spike protein (Spike-H6) (SARS-CoV-2); test: SPR, Spike immobilized, bivalent analyte model, first binding step
[6] = target: full-length trimeric SARS-CoV-2 Spike protein (Spike-H6) (SARS-CoV-2); test: AFM single molecule force spectroscopy, Evans model
[7] = target: full-length trimeric SARS-CoV-2 Spike protein (Spike-H6) (SARS-CoV-2); test: inhibition of Spike binding to Vero E6 cells, AFM

Sequence of human recombinant soluble ACE2 (human) (Q9BYF1 18-740 limits assumed): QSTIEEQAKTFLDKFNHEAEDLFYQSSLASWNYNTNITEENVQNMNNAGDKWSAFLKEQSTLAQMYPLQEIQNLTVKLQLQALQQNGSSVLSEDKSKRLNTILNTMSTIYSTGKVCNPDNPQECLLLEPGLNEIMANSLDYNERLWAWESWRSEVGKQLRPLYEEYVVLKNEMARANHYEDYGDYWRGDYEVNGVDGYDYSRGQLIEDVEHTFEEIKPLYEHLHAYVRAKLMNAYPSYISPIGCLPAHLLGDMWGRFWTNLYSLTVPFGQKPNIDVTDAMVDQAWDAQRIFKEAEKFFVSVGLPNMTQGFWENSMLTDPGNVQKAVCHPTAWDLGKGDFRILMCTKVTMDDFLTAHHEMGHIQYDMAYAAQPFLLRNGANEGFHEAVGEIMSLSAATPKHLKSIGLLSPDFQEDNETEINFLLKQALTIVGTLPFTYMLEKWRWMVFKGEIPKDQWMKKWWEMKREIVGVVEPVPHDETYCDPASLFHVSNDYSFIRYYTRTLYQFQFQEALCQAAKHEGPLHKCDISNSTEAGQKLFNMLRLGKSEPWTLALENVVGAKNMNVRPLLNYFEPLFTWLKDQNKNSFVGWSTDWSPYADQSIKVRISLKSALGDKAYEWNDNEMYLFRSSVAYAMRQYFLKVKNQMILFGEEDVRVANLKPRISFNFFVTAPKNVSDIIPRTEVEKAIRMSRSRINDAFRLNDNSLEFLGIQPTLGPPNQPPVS
Sequence of human CLEC4G-hIgG1 Fc-fusion protein (Fc fusion) (Q6UXB4 53-293, form in doubt): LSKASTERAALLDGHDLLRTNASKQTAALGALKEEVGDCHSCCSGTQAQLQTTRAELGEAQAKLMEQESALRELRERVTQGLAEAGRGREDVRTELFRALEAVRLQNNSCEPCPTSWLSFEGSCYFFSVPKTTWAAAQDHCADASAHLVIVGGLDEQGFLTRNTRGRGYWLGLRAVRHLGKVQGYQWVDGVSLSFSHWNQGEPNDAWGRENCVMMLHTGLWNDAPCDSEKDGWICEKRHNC
Sequence of Lgals4_1 CRD-mouse IgG2a-Fc fusion protein (Q8K419 other isoform, or with tags, fused parts or gaps limits assumed): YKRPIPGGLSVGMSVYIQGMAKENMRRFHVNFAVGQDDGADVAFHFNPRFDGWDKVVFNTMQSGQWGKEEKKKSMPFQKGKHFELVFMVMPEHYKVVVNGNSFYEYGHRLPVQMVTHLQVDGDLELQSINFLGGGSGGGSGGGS
Sequence of Clec2i CRD-mouse IgG2a-Fc fusion protein (Q9WVF9 other isoform, or with tags, fused parts or gaps limits assumed): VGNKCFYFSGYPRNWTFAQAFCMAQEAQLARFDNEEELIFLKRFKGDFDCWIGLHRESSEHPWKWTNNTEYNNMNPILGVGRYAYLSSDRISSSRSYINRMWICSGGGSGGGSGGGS
Sequence of Olr1 CRD-mouse IgG2a-Fc fusion protein (Q9EQ09 other isoform, or with tags, fused parts or gaps limits assumed): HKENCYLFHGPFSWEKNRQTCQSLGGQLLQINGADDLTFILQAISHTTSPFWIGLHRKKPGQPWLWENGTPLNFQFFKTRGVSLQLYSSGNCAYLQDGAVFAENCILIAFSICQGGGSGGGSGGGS
Sequence of Clec4g CRD-mouse IgG2a-Fc fusion protein (Q8BNX1 other isoform, or with tags, fused parts or gaps limits assumed): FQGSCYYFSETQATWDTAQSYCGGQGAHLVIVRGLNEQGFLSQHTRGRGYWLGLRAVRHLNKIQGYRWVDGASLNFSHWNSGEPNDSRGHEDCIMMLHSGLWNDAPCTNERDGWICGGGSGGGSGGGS
Sequence of Ncan CRD-mouse IgG2a-Fc fusion protein (P55066 other isoform, or with tags, fused parts or gaps limits assumed): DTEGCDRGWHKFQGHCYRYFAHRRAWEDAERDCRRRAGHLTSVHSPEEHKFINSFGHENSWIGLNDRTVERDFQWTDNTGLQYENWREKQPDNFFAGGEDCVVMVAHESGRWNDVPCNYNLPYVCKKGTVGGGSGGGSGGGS
Sequence of Clec2h CRD-mouse IgG2a-Fc fusion protein (Q8C1T8 other isoform, or with tags, fused parts or gaps limits assumed): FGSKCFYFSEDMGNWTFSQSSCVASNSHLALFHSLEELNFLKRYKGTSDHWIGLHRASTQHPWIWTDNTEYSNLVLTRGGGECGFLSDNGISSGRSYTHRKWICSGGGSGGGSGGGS
Sequence of Asgr1 CRD-mouse IgG2a-Fc fusion protein (P34927 other isoform, or with tags, fused parts or gaps limits assumed): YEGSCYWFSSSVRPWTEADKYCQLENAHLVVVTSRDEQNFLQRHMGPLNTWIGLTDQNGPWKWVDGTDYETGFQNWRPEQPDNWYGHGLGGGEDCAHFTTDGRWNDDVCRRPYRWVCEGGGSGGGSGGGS
Sequence of Clec2g CRD-mouse IgG2a-Fc fusion protein (Q9D676 other isoform, or with tags, fused parts or gaps limits assumed): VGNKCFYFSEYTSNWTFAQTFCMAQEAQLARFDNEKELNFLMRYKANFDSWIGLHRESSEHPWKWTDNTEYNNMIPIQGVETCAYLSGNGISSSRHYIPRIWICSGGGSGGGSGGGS
Sequence of Ly75_2 CRD-mouse IgG2a-Fc fusion protein (Q60767 other isoform, or with tags, fused parts or gaps limits assumed): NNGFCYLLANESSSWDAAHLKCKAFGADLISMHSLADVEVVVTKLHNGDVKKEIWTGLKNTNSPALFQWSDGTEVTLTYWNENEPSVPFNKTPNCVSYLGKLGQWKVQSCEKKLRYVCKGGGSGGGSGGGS
Sequence of Lgals6_2 CRD-mouse IgG2a-Fc fusion protein (O54891 other isoform, or with tags, fused parts or gaps limits assumed): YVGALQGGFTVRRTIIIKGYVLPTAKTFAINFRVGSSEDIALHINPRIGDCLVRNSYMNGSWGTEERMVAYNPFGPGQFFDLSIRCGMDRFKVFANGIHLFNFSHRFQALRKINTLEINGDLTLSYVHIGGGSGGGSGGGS
Sequence of Bcan CRD-mouse IgG2a-Fc fusion protein (Q61361 other isoform, or with tags, fused parts or gaps limits assumed): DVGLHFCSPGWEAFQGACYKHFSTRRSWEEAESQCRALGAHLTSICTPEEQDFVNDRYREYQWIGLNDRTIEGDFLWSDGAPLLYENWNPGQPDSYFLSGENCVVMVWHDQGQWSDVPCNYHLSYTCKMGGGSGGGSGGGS
Sequence of Ly75_1 CRD-mouse IgG2a-Fc fusion protein (Q60767 other isoform, or with tags, fused parts or gaps limits assumed): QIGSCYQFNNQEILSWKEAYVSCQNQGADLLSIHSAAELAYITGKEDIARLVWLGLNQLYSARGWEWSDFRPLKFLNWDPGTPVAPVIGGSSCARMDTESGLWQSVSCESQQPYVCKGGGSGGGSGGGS
Sequence of Ly75_5 CRD-mouse IgG2a-Fc fusion protein (Q60767 other isoform, or with tags, fused parts or gaps limits assumed): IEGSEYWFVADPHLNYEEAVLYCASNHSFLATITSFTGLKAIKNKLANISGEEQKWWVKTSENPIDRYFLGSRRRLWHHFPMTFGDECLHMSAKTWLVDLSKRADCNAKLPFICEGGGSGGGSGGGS

Row | Substance | Mean normalized OD [1] | Mean normalized OD [2] | Mean normalized OD [3] | further results
1 | Asgr1 CRD-mouse IgG2a-Fc fusion protein (from UniProt P34927 160-277) | 0.697 OD |  |  | 
2 | Bcan CRD-mouse IgG2a-Fc fusion protein (from UniProt Q61361 658-786) | 0.101 OD |  |  | 
3 | Cd33 CRD-mouse IgG2a-Fc fusion protein (from UniProt Q63994 17-120) | 0.009 OD | 0.023 OD | 0.216 OD | 
4 | Cd93 CRD-mouse IgG2a-Fc fusion protein (from UniProt O89103 31-173) | -0.005 OD | 0 OD | -0.163 OD | 
5 | Cd209f CRD-mouse IgG2a-Fc fusion protein | 0.015 OD | 0.018 OD | 0.182 OD | 
6 | Clec2f CRD-mouse IgG2a-Fc fusion protein | 0.045 OD | -0.02 OD | -0.261 OD | 
7 | Clec2g CRD-mouse IgG2a-Fc fusion protein (from UniProt Q9D676 150-254) | 0.421 OD |  |  | 
8 | Clec2h CRD-mouse IgG2a-Fc fusion protein (from UniProt Q8C1T8 97-201) | 0.237 OD |  |  | 
9 | Clec2i CRD-mouse IgG2a-Fc fusion protein (from UniProt Q9WVF9 99-203) | 0.178 OD |  |  | 
10 | Clec2j CRD-mouse IgG2a-Fc fusion protein | 0.005 OD | 0.006 OD | 0.059 OD | 
11 | Clec4a1 CRD-mouse IgG2a-Fc fusion protein | 0.024 OD | 0.014 OD | -0.004 OD | 
12 | Clec4a3 CRD-mouse IgG2a-Fc fusion protein | 0.002 OD | 0.002 OD | 0.001 OD | 
13 | Clec4a4 CRD-mouse IgG2a-Fc fusion protein | 0.007 OD | 0.004 OD | -0.009 OD | 
14 | Clec4a CRD-mouse IgG2a-Fc fusion protein (from UniProt Q9QZ15 126-233) | 0.036 OD | 0.014 OD | 0.062 OD | 
15 | Clec4b1 CRD-mouse IgG2a-Fc fusion protein | 0.023 OD | 0.013 OD | 0.001 OD | 
16 | Clec4b2 CRD-mouse IgG2a-Fc fusion protein | 0.003 OD | -0.013 OD | 0.008 OD | 
17 | Clec4f CRD-mouse IgG2a-Fc fusion protein (from UniProt P70194 438-538) | 0.362 OD | -0.146 OD | 0.194 OD | 
18 | Clec4g CRD-mouse IgG2a-Fc fusion protein (from UniProt Q8BNX1 172-287) | 0.451 OD |  |  | 
19 | Colec12 CRD-mouse IgG2a-Fc fusion protein (from UniProt Q8K4Q8 614-731) |  |  | 0.317 OD | 
20 | Fcer2a CRD-mouse IgG2a-Fc fusion protein (from UniProt P20693 185-298) | 0 OD | 0.007 OD | -0.004 OD | 
21 | Gm156 CRD-mouse IgG2a-Fc fusion protein | 0.048 OD | 0.074 OD | 0.009 OD | 
22 | IgG2a | 0 OD | 0.001 OD | -0.003 OD | 
23 | Klrb1b_1 CRD-mouse IgG2a-Fc fusion protein | 0.002 OD | 0.001 OD | 0.003 OD | 

Row | Substance | Mean normalized OD [1] | Mean normalized OD [2] | Mean normalized OD [3] | further results
24 | Klrc1 CRD-mouse IgG2a-Fc fusion protein | 0.01 OD | 0.006 OD | 0.039 OD | 
25 | Klrc2 CRD-mouse IgG2a-Fc fusion protein | 0.035 OD | 0.025 OD | 0.104 OD | 
26 | Klrc3 CRD-mouse IgG2a-Fc fusion protein | 0.061 OD | -0.007 OD | 0.086 OD | 
27 | Lgals4_1 CRD-mouse IgG2a-Fc fusion protein (from UniProt Q8K419 19-150) | 0.143 OD |  |  | 
28 | Lgals6_2 CRD-mouse IgG2a-Fc fusion protein (from UniProt O54891 173-301) | 0.073 OD |  | 0.528 OD | 
29 | Lgals9_2 CRD-mouse IgG2a-Fc fusion protein (from UniProt O08573 225-353) |  |  | 0.367 OD | 
30 | Ly75_1 CRD-mouse IgG2a-Fc fusion protein (from UniProt Q60767 225-341) | 0.29 OD |  |  | 
31 | Ly75_2 CRD-mouse IgG2a-Fc fusion protein (from UniProt Q60767 368-486) | -0.206 OD |  |  | 
32 | Ly75_5 CRD-mouse IgG2a-Fc fusion protein (from UniProt Q60767 818-932) | 0.14 OD |  |  | 
33 | Mag CRD-mouse IgG2a-Fc fusion protein (from UniProt P20917 22-120) | 0.004 OD | 0.008 OD | 0.032 OD | 
34 | Mbl1 CRD-mouse IgG2a-Fc fusion protein (from UniProt P39039 144-239) | 0.019 OD | 0.043 OD | 0.098 OD | 
35 | Mgl2 CRD-mouse IgG2a-Fc fusion protein | 1.31 OD | 0.598 OD | 0.145 OD | 
36 | Ncan CRD-mouse IgG2a-Fc fusion protein (from UniProt P55066 1036-1165) | 0.279 OD |  |  | 
37 | Olr1 CRD-mouse IgG2a-Fc fusion protein (from UniProt Q9EQ09 242-355) | 0.379 OD |  |  | 
38 | Prg2 CRD-mouse IgG2a-Fc fusion protein | 0.001 OD | 0.009 OD | -0.014 OD | 
39 | Prg3 CRD-mouse IgG2a-Fc fusion protein | -0.057 OD | -0.271 OD | -0.298 OD | 
40 | Reg3d CRD-mouse IgG2a-Fc fusion protein | 0.019 OD | 0.019 OD | 0.152 OD | 
41 | Siglec5 CRD-mouse IgG2a-Fc fusion protein | 0.019 OD | 0.041 OD | 0.146 OD | 
42 | Siglec10 CRD-mouse IgG2a-Fc fusion protein (from UniProt Q80ZE3 26-138) |  |  | 0.299 OD | 
43 | Siglech CRD-mouse IgG2a-Fc fusion protein | 0 OD | 0.003 OD | -0.003 OD | 
44 | Vcan CRD-mouse IgG2a-Fc fusion protein (from UniProt Q62059 3138-3252) |  |  | 0.332 OD | 
45 | human CD209-hIgG1 Fc-fusion protein (from UniProt Q9NNX6 62-404) (Fc fusion) |  |  |  | molecules bound per trimeric Spike (average) (molecules per trimeric Spike) [4]: 3.6; Kd [5]: 2390 nM; koff [5]: 0.0316 s⁻¹; kon [5]: 13200 M⁻¹ s⁻¹; koff [6]: 0.008 s⁻¹; xβ (length of dissociation path) [6]: 0.73 nm
46 | human CLEC4G-hIgG1 Fc-fusion protein (Fc fusion) |  |  |  | molecules bound per trimeric Spike (average) (molecules per trimeric Spike) [4]: 3.5; Kd [5]: 259 nM; koff [5]: 0.0201 s⁻¹; kon [5]: 77700 M⁻¹ s⁻¹; Ki [7]: 35 to 70 nM; koff [6]: 0.007 s⁻¹; xβ (length of dissociation path) [6]: 0.64 nm
